Experimental data reported in paper PMC6681757, “Site-specific phosphorylation of myosin binding protein-C coordinates thin and thick filament activation in cardiac muscle” (Proceedings of the National Academy of Sciences of the …, 2019).

Target: T1, myosin S2Δ, the first 126 amino acids of myosin S2 (cardiac myosin)
T1 construct: cardiac myosin heavy chain, S2 domain, first 126 amino acids of S2
Assay: MST; C1mC2 species (or native full-length cMyBP-C) titrated against myosin S2Δ; normalized MST curves; conditions in SI Appendix
Conditions: both partners purified

- Kd: ~20 µM
B1: C1mC2-S288A monophosphorylated by PKA (C1mC2-S288A-1P) (domain or fragment)
chain: PIGLFLMRPQDGEVTVGGSIVFSARVAGASLLKPPVVKWFKGKWVDLSSKVGQHLQLHDSYDRASKVYLFELHITDAQATSAGGYRCEVSTKDKFDSCNFNLTVHEAIGSGDLDLRSAFRRTSLAGTGRRTADSHEDAGTLDFSSLLKKSSSFRRDSKLEAPAEEDVWEILRQAPPSEYERIAFQHGVTDLRGMLKRLKGMKHDEKKSTAFQKKLEPAYQVNKGHKIRLTVELADPDAEVKWLKNGQEIQMSGRYIFESIGAKRTLTISQCSLADDAAYQCVVGGEKCSTELFVKEP
modifications: one phosphate (monophosphorylated by PKA); the phosphorylated residue is not given
